These results are taken from US20250154283A1 (published 2025).

Positions count from the first letter of the chain named.

The target in test [1] is T1, biotinylated human VWF cysteine knot (CK) domain construct (human, UniProt P04275 2724-2813, biotinylated in vitro (BirA) on the biotinylation tag; one N-glycan).
T1 construct: Expressed in HEK293 EBNA cells; disulfide-linked homodimer; also called human VWF CK; human VWF CK domain; not shown: in vitro biotinylation tag, HRV-3C site and 3 VWF residues before the CK domain
Kind of test: SPR, scFv captured via anti-SV5, CK domain injected, pH 5.5, apparent Kd.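 Note: scFvs from crude yeast supernatants captured on chip-bound anti-SV5 antibody, Kd computed as koff divided by kon, dimeric CK construct likely makes affinity appear higher.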

Test [2] concerns the target T1, biotinylated human VWF cysteine knot …. Put plainly: SPR, scFv captured via anti-SV5, CK domain injected, pH 7.4, apparent Kd.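 Note: scFvs from crude yeast supernatants printed on an amine-coupled anti-SV5 lawn, Kd computed as koff over kon, likely overestimating affinity because the CK construct is dimeric.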
Excerpt: Briefly, a sensor chip was activated and coupled with an anti-SV5 mouse monoclonal antibody using amine coupling. The soluble scFvs in crude yeast supernatants were printed on the anti-SV5 lawn. […] From the measured association (kₒₙ) and dissociation (koff) rate constants, an apparent equilibrium dissociation constant (Kd=koff/kₒₙ) was estimated. Due to the dimeric state of the CK construct and consequent possibility for simultaneous binding of captured scFv to both monomers in the CK dimer, the SPR setup was expected to overestimate the binding affinity.
Test [3] deals with T2, biotinylated cynomolgus monkey VWF cysteine knot (CK) domain construct (cynomolgus monkey, biotinylated in vitro (BirA) on the biotinylation tag; one N-glycan).
T2 construct: Expressed in HEK293 EBNA cells; disulfide-linked homodimer; also called cyno VWF CK; cyno VWF CK domain; not shown: in vitro biotinylation tag, HRV-3C site and 3 VWF residues before the CK domain
T2 chain: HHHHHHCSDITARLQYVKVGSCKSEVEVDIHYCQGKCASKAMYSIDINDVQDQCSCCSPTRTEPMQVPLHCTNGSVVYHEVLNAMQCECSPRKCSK
The test is described as above.

B1: 7046_Lib8_scFv (scFv)
scFv: EVQLVESGGGLVQPGRSLRLSCAASGFNFHNYDMHWVRQAPGKGLEWVSAISGSGYTADYADSVEGRFTISRDNAKNSLYLQMNSLRAEDTAVYYCAKSHSSGWSSAFDIWGQGTMVTVSSSGGSTITSYNVYYTKLSSSGTDIQMTQSPSSLSASVGDRVTITCRASQTIGYWLAWYQQKPGKAPKLLIYDATNLATGVPSRFSGSGSGTDFTLTISSLQPEDVATYYCQHYNPYSQVTFGGGTKVEIK
notes: VH-linker-VL; not shown: C-terminal 3xFLAG and SV5 tags
Take B1: the Kd came to 1.16 nM in test [1], 0.088 nM in test [2] and 0.002 nM in test [3].

B2: Lib1_P1_A2_scFv (scFv)
scFv: QVQLVQSGAEVKKPGASVKVSCKVSEGTLSRHYINWVRQAPGKGLEWMGGINAKSGATIYAQKFQGRVTMTEDTSTDTAYMELSSLKSEDTAVYYCAKDTGDDILTDYSDAFDIWGQGTMVTVSSSGGSTITSYNVYYTKLSSSGTDIQMTQSPSSVSASVGDRVTITCRASQNIGTSLAWYQQKPGKAPKLLIYGASNLESGVPSRFSGSGSGTDFTLTISSLQPEDFANYYCLQYNDWPPLYSFGGGTKVEIK
notes: as for B1
As to B2, the Kd stood at 0.076 nM in test [1] and 1.78 nM in test [2].

B3: 5802_Lib4_scFv (scFv)
scFv: QVQLQESGPGLVKPSQTLSLTCTVSGYSISSGDYHWSWIRQPPGKGLEWIGYINPSGSADYNPSLKSRVTMSVDTSKNQFSLKVNSVTAADTAVYYCARDGVAATYYYYYGMDVWGQGTTVTVSSSGGSTITSYNVYYTKLSSSGTEIVMTQSPATLSLSPGERATLSCRASHSIGSNLAWYQQKPGQAPRLLIYDATTRATGIPARFSGSGSGTDFTLTISSLEPEDFAVYYCQQAYSFPLTFGGGTKVEIK
notes: as for B1
For B3, the figures for the Kd in test [1], in test [2] and in test [3] were 1.09 nM, 0.101 nM and 0.016 nM, respectively.

B4: Lib1_P1_D1_scFv (scFv)
scFv: QVQLVQSGAEVKKPGASVKVSCKVSGDTFTDRYIHWVRQAPGKGLEWMGGINTIFGTAIYAQKFQGRVTMTEDTSTDTAYMELSSLKSEDTAVYYCAREGATVSTNFDYWGQGTLVTVSSSGGSTITSYNVYYTKLSSSGTDIQMTQSPSSVSASVGDRVTITCRASQDIRKSLAWYQQKPGKAPKLLIYDISNRPSGVPSRFSGSGSGTDFTLTISSLQPEDFANYYCQQGYSAPYGFGGGTKVEIK
notes: as for B1
For B4, the Kd was determined as 0.338 nM in test [1], 0.589 nM in test [2] and 0.187 nM in test [3].

B5: 16_Lib8_scFv (scFv)
scFv: EVQLVESGGGLVQPGRSLRLSCAASGFRFDEYDMHWVRQAPGKGLEWVSAISSESASIDYADSVEGRFTISRDNAKNSLYLQMNSLRAEDTAVYYCARDGAYGDYFDYWGQGTMVTVSSSGGSTITSYNVYYTKLSSSGTDIQMTQSPSSLSASVGDRVTITCRASQDIKSWLAWYQQKPGKAPKLLIYGASTLQSGVPSRFSGSGSGTDFTLTISSLQPEDVATYYCQQSYSAPYTFGGGTKVEIK
notes: as for B1
Turning to B5, the Kd in test [1] worked out at 1.05 nM; in test [2], 2.11 nM.

B6: 8226_Lib8_scFv (scFv)
scFv: EVQLVESGGGLVQPGRSLRLSCAASGFNFHNYDMHWVRQAPGKGLEWVSAISGGAVSTDYADSVEGRFTISRDNAKNSLYLQMNSLRAEDTAVYYCARSSWYGGQIDFWGQGTLVTVSSSGGSTITSYNVYYTKLSSSGTDIQMTQSPSSLSASVGDRVTITCRASQDISGWLAWYQQKPGKAPKLLIYAASSLQDGVPSRFSGSGSGTDFTLTISSLQPEDVATYYCQQSYRIPSTFGGGTKVEIK
notes: as for B1
Take B6: the Kd in test [1] was 1.38 nM; in test [2] it was 3.17 nM; in test [3] it was 0.55 nM.

B7: 1081_Lib8_scFv (scFv)
scFv: EVQLVESGGGLVQPGRSLRLSCAASGFNFHNYDMHWVRQAPGKGLEWVSAISGGAVSTDYADSVEGRFTISRDNAKNSLYLQMNSLRAEDTAVYYCARSSWYGGQIDFWGQGTLVTVSSSGGSTITSYNVYYTKLSSSGTDIQMTQSPSSLSASVGDRVTITCRASESVSSWLAWYQQKPGKAPKLLIYGASTLEGGVPSRFSGSGSGTDFTLTISSLQPEDVATYYCQQAYRTPVTFGGGTKVEIK
notes: as for B1
With B7, the values for the Kd in test [1], in test [2] and in test [3] were 0.274 nM, 0.391 nM and 0.167 nM, respectively.

B8: Lib8_P4_C10_scFv (scFv)
scFv: EVQLVESGGGLVQPGRSLRLSCAASGFNFHNYDMHWVRQAPGKGLEWVSAISGSSDTMDYADSVEGRFTISRDNAKNSLYLQMNSLRAEDTAVYYCVRASWYGTFFDYWGQGTLVTVSSSGGSTITSYNVYYTKLSSSGTDIQMTQSPSSLSASVGDRVTITCRASQDISGWLAWYQQKPGKAPKLLIYAASSLQDGVPSRFSGSGSGTDFTLTISSLQPEDVATYYCQQSYRIPSTFGGGTKVEIK
notes: as for B1
In the case of B8, the results for the Kd in test [1], in test [2] and in test [3] were 0.487 nM, 3.15 nM and 1.01 nM, respectively.

B9: Lib1_P1_A6_scFv (scFv)
scFv: QVQLVQSGAEVKKPGASVKVSCKVSGSTFSNYAIHWVRQAPGKGLEWMGGIVPLSGTAIYAQKFQGRVTMTEDTSTDTAYMELSSLKSEDTAVYYCARDQGESSGWYAIYYGMDVWGQGTTVTVSSSGGSTITSYNVYYTKLSSSGTDIQMTQSPSSVSASVGDRVTITCRASQGIGTWLAWYQQKPGKAPKLLIYGSSSRASGVPSRFSGSGSGTDFTLTISSLQPEDFANYYCQQSYGKPTFGGGTKVEIK
notes: as for B1
B9: the Kd was found to be 0.045 nM in test [1], 0.092 nM in test [2] and 0.059 nM in test [3].

B10: 9301_Lib8_scFv (scFv)
scFv: EVQLVESGGGLVQPGRSLRLSCAASGFNFHNYDMHWVRQAPGKGLEWVSAISGSGYTADYADSVEGRFTISRDNAKNSLYLQMNSLRAEDTAVYYCAKSHSSGWSSAFDIWGQGTMVTVSSSGGSTITSYNVYYTKLSSSGTDIQMTQSPSSLSASVGDRVTITCRASQTIGYWLAWYQQKPGKAPKLLIYDASVPESGVPSRFSGSGSGTDFTLTISSLQPEDVATYYCQQTLSSPWTFGGGTKVEIK
notes: as for B1
As to B10, the figures for the Kd in test [1], in test [2] and in test [3] were 0.039 nM, 0.167 nM and 0.684 nM, respectively.

B11: 1374_Lib8_scFv (scFv)
scFv: EVQLVESGGGLVQPGRSLRLSCAASGVDFSTYAMHWVRQAPGKGLEWVSAISSSGAYTDYADSVEGRFTISRDNAKNSLYLQMNSLRAEDTAVYYCATDRGPFSGYGTQGWFDPWGQGTLVTVSSSGGSTITSYNVYYTKLSSSGTDIQMTQSPSSLSASVGDRVTITCRASQTIRSYLAWYQQKPGKAPKLLIYGASDLQSGVPSRFSGSGSGTDFTLTISSLQPEDVATYYCQQYANFPITFGGGTKVEIK
notes: as for B1
On to B11, for which the Kd in test [1] was 0.043 nM; in test [2], 0.116 nM; in test [3], 0.061 nM.

B12: 1405_Lib8_scFv (scFv)
scFv: B11 scFv with Q173R, T174D, R176T, G196H, D199T, Q201E, S202A, A238G, N239D, I242P
notes: as for B1
Take B12: the Kd in test [1] turned out to be 0.389 nM; in test [2], 0.305 nM; in test [3], 0.039 nM.

B13: Lib4_P2_A11_scFv (scFv)
scFv: QVQLQESGPGLVKPSQTLSLTCTVSGVTFSSYGWSWIRQPPGKGLEWIGYVDTSGSTDYNPSLKSRVTMSVDTSKNQFSLKVNSVTAADTAVYYCARTTYYYDSSGFARGWFDPWGQGTLVTVSSSGGSTITSYNVYYTKLSSSGTEIVMTQSPATLSLSPGERATLSCRASRSISTNLAWYQRKPGQAPRLLIYDTSNRAPGIPARFSGSGSGTDFTLTISSLEPEDFAVYYCLQYDVSPYTFGGGTKVEIK
notes: VH-linker-VL; also called Lib4_P2_All; not shown: C-terminal 3xFLAG and SV5 tags
Consider B13, for which the figures for the Kd in test [1] and in test [2] were 0.033 nM and 3.11 nM, respectively.

B14: 9621_Lib8_scFv (scFv)
scFv: EVQLVESGGGLVQPGRSLRLSCAASGFSFSMYAMHWVRQAPGKGLEWVSAISPSGDATDYADSVEGRFTISRDNAKNSLYLQMNSLRAEDTAVYYCARGMQDYGHYYYYYMDVWGKGTTVTVSSSGGSTITSYNVYYTKLSSSGTDIQMTQSPSSLSASVGDRVTITCRASQDISTSLAWYQQKPGKAPKLLIYGASSLETGVPSRFSGSGSGTDFTLTISSLQPEDVATYYCQQGYIAPRTFGGGTKVEIK
notes: as for B1
B14: the Kd in test [1] was found to be 2.28 nM; in test [2] it was 0.217 nM; in test [3] it was 0.137 nM.

B15: Lib4_P2_A5_scFv (scFv)
scFv: QVQLQESGPGLVKPSQTLSLTCTVSGSSISSSSDYWSWIRQPPGKGLEWIGYIDISGDADYNPSLKSRVTMSVDTSKNQFSLKVNSVTAADTAVYYCARHLSSGWYGTYYFDYWGQGTLVTVSSSGGSTITSYNVYYTKLSSSGTEIVMTQSPATLSLSPGERATLSCRASQNIHSNLAWYQQKPGQAPRLLIYDASSRATGIPARFSGSGSGTDFTLTISSLEPEDFAVYYCQQGYTKPLTFGGGTKVEIK
notes: as for B1
With B15, the figures for the Kd in test [1], in test [2] and in test [3] were 0.123 nM, 0.493 nM and 0.128 nM, respectively.

B16: Lib4_P2_H3_scFv (scFv)
scFv: QVQLQESGPGLVKPSQTLSLTCTVSGSTFGDYAWSWIRQPPGKGLEWIGYINHIGNADYNPSLKSRVTMSVDTSKNQFSLKVNSVTAADTAVYYCARDGVESPEVPNYYYYGMDVWGQGTTVTVSSSGGSTITSYNVYYTKLSSSGTEIVMTQSPATLSLSPGERATLSCRASHSIGSNLAWYQQKPGQAPRLLIYDATNRAPGIPARFSGSGSGTDFTLTISSLEPEDFAVYYCQQSYTNPTFGGGTKVEIK
notes: as for B1
B16: the figures for the Kd in test [1], in test [2] and in test [3] were 0.075 nM, 0.307 nM and 0.134 nM, respectively.
